# Measurements published in the supplement of paper PMC10567573.
# B1: DUSP5 (parent)
# chain: YSEYPECCVDVKPISQEKIESERA
# Variants of: B1
# Assay: protein stability index of a GFP-peptide fusion (GPS, HEK-293T) (PSI 1-6); higher = more stable
# Details: c terminus: a fixed tail appended
# 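Further: lentivirally expressed fusions sorted by FACS into six bins by GFP to DsRed ratio, PSI derived from sequencing read proportions per bin multiplied by bin number.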
row,Variant,protein stability index
1,YSEYPECCVDVKPISTEKIESERA,4.03
2,YSEYPECCVDVKPISIEKIESERA,3.9
3,YSEYPECCVDVKPISSEKIESERA,3.85
4,YSEYPECCVDVKPISWEKIESERA,2.83
5,YSEYPECCVDVKPISEEKIESERA,4.33
6,YSEYPECCVDVKPISAEKIESERA,3.74
7,YSEYPECCVDVKPISPEKIESERA,4.38
8,YSEYPECCVDVKPISKEKIESERA,3.85
9,YSEYPECCVDVKPISNEKIESERA,4.59
10,YSEYPECCVDVKPISYEKIESERA,3.37
11,YSEYPECCVDVKPISHEKIESERA,3.99
12,YSEYPECCVDVKPISMEKIESERA,4.3
13,YSEYPECCVDVKPISGEKIESERA,4.06
14,YSEYPECCVDVKPISVEKIESERA,3.41
15,YSEYPECCVDVKPISFEKIESERA,3.58
16,YSEYPECCVDVKPISLEKIESERA,4.19
17,YSEYPECCVDVKPISREKIESERA,4.34
18,YSEYPECCVDVKPISDEKIESERA,4.67
19,YSEYPECCVDVKEISQEKIESERA,4.19
20,YSEYPECCVDVKQISQEKIESERA,4.14
21,YSEYPECCVDVKAISQEKIESERA,4.56
22,YSEYPECCVDVKFISQEKIESERA,3.85
23,YSEYPECCVDVKRISQEKIESERA,3.48
24,YSEYPECCVDVKSISQEKIESERA,3.33

row,Variant,protein stability index
1,YSEYPECCVDVKYISQEKIESERA,3.29
2,YSEYPECCVDVKDISQEKIESERA,4.47
3,YSEYPECCVDVKHISQEKIESERA,4.03
4,YSEYPECCVDVKTISQEKIESERA,4.18
5,YSEYPECCVDVKGISQEKIESERA,4.03
6,YSEYPECCVDVKVISQEKIESERA,2.85
7,YSEYPECCVDVKLISQEKIESERA,3.22
8,YSEYPECCVDVKWISQEKIESERA,3.17
9,YSEYPECCVDVKCISQEKIESERA,4.88
10,YSEYPECCVDVKIISQEKIESERA,3.69
11,YSEYPECCVDVKNISQEKIESERA,3.96
12,YSEYPECCVDVKKISQEKIESERA,4.12
13,YSEYPECCVDVKMISQEKIESERA,3.5
14,YSEYPECCVDVKPICQEKIESERA,4.14
15,YSEYPECCVDVKPIQQEKIESERA,4.05
16,YSEYPECCVDVKPIAQEKIESERA,4.16
17,YSEYPECCVDVKPIIQEKIESERA,3.82
18,YSEYPECCVDVKPIPQEKIESERA,4.38
19,YSEYPECCVDVKPILQEKIESERA,3.68
20,YSEYPECCVDVKPIDQEKIESERA,4.81
21,YSEYPECCVDVKPIFQEKIESERA,3.64
22,YSEYPECCVDVKPIRQEKIESERA,4.09
23,YSEYPECCVDVKPIYQEKIESERA,4.18
24,YSEYPECCVDVKPIVQEKIESERA,3.96

row,Variant,protein stability index
1,YSEYPECCVDVKPITQEKIESERA,3.85
2,YSEYPECCVDVKPIGQEKIESERA,4.45
3,YSEYPECCVDVKPIHQEKIESERA,4.47
4,YSEYPECCVDVKPIKQEKIESERA,3.68
5,YSEYPECCVDVKPIEQEKIESERA,4.18
6,YSEYPECCVDVKPISQEKIASERA,4.89
7,YSEYPECCVDVKPISQEKICSERA,4.31
8,YSEYPECCVDVKPISQEKIGSERA,3.67
9,YSEYPECCVDVKPISQEKITSERA,3.59
10,YSEYPECCVDVKPISQEKILSERA,3.94
11,YSEYPECCVDVKPISQEKIISERA,3.49
12,YSEYPECCVDVKPISQEKIPSERA,3.78
13,YSEYPECCVDVKPISQEKIKSERA,4.02
14,YSEYPECCVDVKPISQEKIWSERA,2.04
15,YSEYPECCVDVKPISQEKIYSERA,4.1
16,YSEYPECCVDVKPISQEKIHSERA,4
17,YSEYPECCVDVKPISQEKIFSERA,3.56
18,YSEYPECCVDVKPISQEKIQSERA,3.65
19,YSEYPECCVDVKPISQEKIVSERA,2.78
20,YSEYPECCVDVKPISQEKIMSERA,2.8
21,YSEYPECCVDVKPISQEKIDSERA,4.28
22,YSEYPECCVDVKPISQEKIRSERA,3.56
23,YSEYPECCVDVKPISQEKINSERA,3.6
24,YSEYPECCVDVKPISQEKISSERA,3.97

row,Variant,protein stability index
1,YSEYPECCVDVKPISQEMIESERA,4.3
2,YSEYPECCVDVKPISQEQIESERA,4.87
3,YSEYPECCVDVKPISQEIIESERA,4.02
4,YSEYPECCVDVKPISQETIESERA,4.52
5,YSEYPECCVDVKPISQEVIESERA,4.16
6,YSEYPECCVDVKPISQEAIESERA,4.17
7,YSEYPECCVDVKPISQECIESERA,3.1
8,YSEYPECCVDVKPISQEPIESERA,3.84
9,YSEYPECCVDVKPISQELIESERA,3.68
10,YSEYPECCVDVKPISQESIESERA,3.98
11,YSEYPECCVDVKPISQENIESERA,4.19
12,YSEYPECCVDVKPISQEWIESERA,3.73
13,YSEYPECCVDVKPISQEHIESERA,4.41
14,YSEYPECCVDVKPISQEEIESERA,4.55
15,YSEYPECCVDVKPISQEGIESERA,3.39
16,YSEYPECCVDVKPISQEKKESERA,4.9
17,YSEYPECCVDVKPISQEKGESERA,4.34
18,YSEYPECCVDVKPISQEKYESERA,3.1
19,YSEYPECCVDVKPISQEKNESERA,4.61
20,YSEYPECCVDVKPISQEKVESERA,3.31
21,YSEYPECCVDVKPISQEKPESERA,4.02
22,YSEYPECCVDVKPISQEKMESERA,4.1
23,YSEYPECCVDVKPISQEKWESERA,4.24
24,YSEYPECCVDVKPISQEKAESERA,4.65

row,Variant,protein stability index
1,YSEYPECCVDVKPISQEKHESERA,3.01
2,YSEYPECCVDVKPISQEKFESERA,4.16
3,YSEYPECCVDVKPISQEKTESERA,4.55
4,YSEYPECCVDVKPISQEKQESERA,4.95
5,YSEYPECCVDVKPISQEKEESERA,4.69
6,YSEYPECCVWVKPISQEKIESERA,1.74
7,YSEYPECCVSVKPISQEKIESERA,3.88
8,YSEYPECCVYVKPISQEKIESERA,3.04
9,YSEYPECCVTVKPISQEKIESERA,2.85
10,YSEYPECCVDVKPKSQEKIESERA,4.43
11,YSEYPECCVDVKPNSQEKIESERA,3.31
12,YSEYPECCVDVKPPSQEKIESERA,4.45
13,YSEYPECCVDVKPGSQEKIESERA,3.83
14,YSEYPECCVDVKPQSQEKIESERA,4.48
15,YSEYPECCVDVKPCSQEKIESERA,3.86
16,YSEYPECCVDVKPASQEKIESERA,4.58
17,YSEYPECCVDVKPVSQEKIESERA,4.11
18,YSEYPECCVDVKPHSQEKIESERA,4.29
19,YSEYPECCVDVKPYSQEKIESERA,3.84
20,YSEYPECCVDVKPTSQEKIESERA,3.48
21,YSEYPECCVDVKPMSQEKIESERA,4.65
22,YSEYPECCVDVKPFSQEKIESERA,4.18
23,YSEYPECCVDVKPESQEKIESERA,4.5
24,YSEYPECCVDVKPRSQEKIESERA,3.45

row,Variant,protein stability index
1,YSEYPECCVDVKPSSQEKIESERA,4.4
2,YSEYPECCVDVKPDSQEKIESERA,4.81
3,YSEYPECCVDVKPWSQEKIESERA,3.9
4,YSEYPECCVDVKPISQEKIEFERA,4.11
5,YSEYPECCVDVKPISQEKIEAERA,4.36
6,YSEYPECCVDVKPISQEKIEEERA,4.71
7,YSEYPECCVDVKPISQEKIEHERA,4.58
8,YSEYPECCVDVKPISQEKIEMERA,3.72
9,YSEYPECCVDVKPISQEKIERERA,3.22
10,YSEYPECCVDVKPISQEKIEQERA,4.1
11,YSEYPECCVDVKPISQEKIELERA,3.79
12,YSEYPECCVDVKPISQEKIECERA,3.96
13,YSEYPECCVDVKPISQEKIETERA,4.55
14,YSEYPECCVDVKPISQEKIENERA,3.73
15,YSEYPECCVDVKPISQEKIEKERA,4.49
16,YSEYPECCVDVKPISQEKIEGERA,3.8
17,YSEYPECCVDVKPISQEKIEIERA,3.42
18,YSEYPECCVDVKPISQEKIEDERA,3.47
19,YSEYPECCVDVKPISQEKIEPERA,4.29
20,YSEYPECCVDVKPISQDKIESERA,3.75
21,YSEYPECCVDVKPISQPKIESERA,4.37
22,YSEYPECCVDVKPISQMKIESERA,2.53
23,YSEYPECCVDVKPISQKKIESERA,3.21
24,YSEYPECCVDVKPISQAKIESERA,4.41

row,Variant,protein stability index
1,YSEYPECCVDVKPISQIKIESERA,3.17
2,YSEYPECCVDVKPISQTKIESERA,3.89
3,YSEYPECCVDVKPISQSKIESERA,3.06
4,YSEYPECCVDVKPISQQKIESERA,3.97
5,YSEYPECCVDVKPISQRKIESERA,2.95
6,YSEYPECCVDVKPISQHKIESERA,3.82
7,YSEYPECCVDVKPISQNKIESERA,3.61
8,YSEYPECCVDVKPISQYKIESERA,3.1
9,YSEYPECCVDVKPISQWKIESERA,2.78
10,YSEYPECCVDVKPISQGKIESERA,3.86
11,YSEYPECCVDVKPISQFKIESERA,3.43
12,YSEYPECCVDVKPISQCKIESERA,3.01
13,YSEYPECCVDVKPISQVKIESERA,2.86
14,YSEYPECCVDPKPISQEKIESERA,3.61
15,YSEYPECCVDMKPISQEKIESERA,4.09
16,YSEYPECCVDDKPISQEKIESERA,5.42
17,YSEYPECCVDTKPISQEKIESERA,3.95
18,YSEYPECCVDQKPISQEKIESERA,5
19,YSEYPECCVDNKPISQEKIESERA,4.51
20,YSEYPECCVDLKPISQEKIESERA,3.84
21,YSEYPECCVDEKPISQEKIESERA,4.25
22,YSEYPECCVDKKPISQEKIESERA,4.17
23,YSEYPECCVDYKPISQEKIESERA,3.4
24,YSEYPECCVDWKPISQEKIESERA,4.09

row,Variant,protein stability index
1,YSEYPECCVDAKPISQEKIESERA,4.23
2,YSEYPECCVDSKPISQEKIESERA,4.24
3,YSEYPECCVDFKPISQEKIESERA,3.53
4,YSEYPECCVDCKPISQEKIESERA,3.38
5,YSEYPECCVDRKPISQEKIESERA,3.45
6,YSEYPECCVDVTPISQEKIESERA,4.07
7,YSEYPECCVDVMPISQEKIESERA,4.18
8,YSEYPECCVDVDPISQEKIESERA,4.46
9,YSEYPECCVDVCPISQEKIESERA,3.96
10,YSEYPECCVDVVPISQEKIESERA,4.14
11,YSEYPECCVDVNPISQEKIESERA,4.07
12,YSEYPECCVDVRPISQEKIESERA,4.25
13,YSEYPECCVDVAPISQEKIESERA,4.47
14,YSEYPECCVDVIPISQEKIESERA,3.72
15,YSEYPECCVDVSPISQEKIESERA,3.02
16,YSEYPECCVDVHPISQEKIESERA,4.95
17,YSEYPECCVDVWPISQEKIESERA,3.26
18,YSEYPECCVDVFPISQEKIESERA,3.83
19,YSEYPECCVDVPPISQEKIESERA,4.32
20,YSEYPECCVDVQPISQEKIESERA,4.77
